Paper PMC11912937

Target: FACT complex (SPT16/SSRP1), full length, untreated (human) (UniProt Q9Y5B9)
Experiment: SEC; analytical SEC of CCAN with different amounts of FACT; peak fractions on SDS-PAGE with TCE, tryptophan fluorescence of the bands normalised to the number of tryptophans and to SPT16

Chain of FACT complex (SPT16/SSRP1), full length, untreated (human) (Q9Y5B9 whole entry, chain 1 of 2): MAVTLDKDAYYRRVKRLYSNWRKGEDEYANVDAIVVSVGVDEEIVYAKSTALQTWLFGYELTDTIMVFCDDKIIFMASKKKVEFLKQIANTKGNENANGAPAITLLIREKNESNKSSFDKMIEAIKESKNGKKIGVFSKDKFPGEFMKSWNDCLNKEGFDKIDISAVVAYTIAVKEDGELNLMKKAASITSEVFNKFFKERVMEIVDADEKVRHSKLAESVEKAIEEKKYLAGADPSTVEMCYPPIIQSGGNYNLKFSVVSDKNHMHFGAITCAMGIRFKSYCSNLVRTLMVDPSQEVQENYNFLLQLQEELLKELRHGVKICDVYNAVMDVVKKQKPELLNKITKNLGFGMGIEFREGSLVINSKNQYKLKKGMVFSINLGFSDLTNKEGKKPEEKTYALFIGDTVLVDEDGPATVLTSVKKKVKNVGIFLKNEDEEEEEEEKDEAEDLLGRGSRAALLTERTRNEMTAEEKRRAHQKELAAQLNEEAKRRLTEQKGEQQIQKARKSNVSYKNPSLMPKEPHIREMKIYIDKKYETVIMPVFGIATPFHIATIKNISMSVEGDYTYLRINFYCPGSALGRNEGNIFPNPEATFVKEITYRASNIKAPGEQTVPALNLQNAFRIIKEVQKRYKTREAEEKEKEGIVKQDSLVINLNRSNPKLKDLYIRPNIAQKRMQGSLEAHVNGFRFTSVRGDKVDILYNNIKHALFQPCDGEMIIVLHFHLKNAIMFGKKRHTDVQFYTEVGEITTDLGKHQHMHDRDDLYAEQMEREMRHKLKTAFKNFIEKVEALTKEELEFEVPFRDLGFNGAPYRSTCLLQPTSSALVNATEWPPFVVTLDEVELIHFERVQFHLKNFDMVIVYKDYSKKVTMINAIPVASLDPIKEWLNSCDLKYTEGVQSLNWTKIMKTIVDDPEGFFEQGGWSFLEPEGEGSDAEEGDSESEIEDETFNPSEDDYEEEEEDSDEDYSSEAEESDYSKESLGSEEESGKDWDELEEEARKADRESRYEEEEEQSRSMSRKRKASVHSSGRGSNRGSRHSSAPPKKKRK
Chain of FACT complex (SPT16/SSRP1), full length, untreated (human) (Q08945 whole entry, chain 2 of 2, further chain): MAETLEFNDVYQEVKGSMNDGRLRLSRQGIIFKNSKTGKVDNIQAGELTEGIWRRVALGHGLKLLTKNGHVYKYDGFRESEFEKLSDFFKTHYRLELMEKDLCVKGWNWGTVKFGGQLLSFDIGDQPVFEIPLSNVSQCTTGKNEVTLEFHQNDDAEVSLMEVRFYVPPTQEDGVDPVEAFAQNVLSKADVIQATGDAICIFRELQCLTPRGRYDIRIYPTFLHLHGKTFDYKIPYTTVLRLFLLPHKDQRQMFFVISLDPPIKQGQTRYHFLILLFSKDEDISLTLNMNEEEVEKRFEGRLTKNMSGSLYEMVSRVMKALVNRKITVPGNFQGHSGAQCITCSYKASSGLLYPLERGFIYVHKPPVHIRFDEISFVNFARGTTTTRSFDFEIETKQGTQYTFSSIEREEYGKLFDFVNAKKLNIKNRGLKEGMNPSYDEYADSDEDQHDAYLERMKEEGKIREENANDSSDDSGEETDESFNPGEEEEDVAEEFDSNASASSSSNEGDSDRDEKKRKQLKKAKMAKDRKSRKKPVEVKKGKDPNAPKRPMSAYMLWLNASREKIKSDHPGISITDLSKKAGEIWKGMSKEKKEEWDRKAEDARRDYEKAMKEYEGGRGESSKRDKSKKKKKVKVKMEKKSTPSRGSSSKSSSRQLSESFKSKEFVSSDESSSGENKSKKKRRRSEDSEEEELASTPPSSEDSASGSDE

stoichiometry N (FACT per CCAN): 1
Substance: CCAN, 16-subunit constitutive centromere-associated network reconstituted with CENP-C^2–545 (from UniProt Q03188 2-545; Q9H3R5 1-247; Q92674 1-756; Q9BS16 1-269; Q9NSP4 1-180; Q8N0S6 1-344; Q96H22 1-339; Q9BU64 1-300; Q6IPU0 1-288; Q7L2Z9 1-268; Q71F23 1-418; Q13352 1-177; Q96BT3 1-561; Q5EE01 1-88; Q8N2Z9 1-138; A8MT69 1-81) (complex)
